Non-standard residues stand in square brackets, D forms with d. No end group written: not given here. Cit = NC(=O)NCCC[C@H](N)C(=O)O
Legend:
[1] = target: T1, peptide no. 5 (human histone 2A) (human, also: biotin-labelled); test: ELISA, Ab 10 ug/well
T1 construct: also called peptide 5
T1 peptide: VGRVH[Cit]LLRKGN
Protocol: (§1) Biotin and citrulline-containing peptides derived from histone 2A were immobilized on NEUTRAVIDIN®-coated 96-well ELISA plates (0.3 μg/well). CFC-1 and CFC-0 were coated at the same concentration and served as positive and negative controls, respectively, for specific anti-citrulline reactivity and as coating controls. Non-coated wells were used to test for aspecific binding of the antibodies. […] Detection of bound anti-citrulline antibodies was performed by incubating the wells with rabbit anti-human HRP (1:2000) for 1 hour at RT followed by incubation with TMB substrate. The resulting OD (y-axis) is a measure for antibody binding.

[2] = target: T2, peptide no. 3 (human histone 2A) (human, also: biotin-labelled); test: ELISA, Ab 10 ug/well
T2 construct: also called peptide 3
T2 peptide: KSRSS[Cit]AGLQFP
Protocol: as §1

[3] = target: T3, peptide no. 4 (human histone 2A) (human, also: biotin-labelled); test: ELISA, Ab 10 ug/well
T3 construct: also called peptide 4
T3 peptide: QFPVG[Cit]VHRLLR
Protocol: as §1

[4] = target: T4, peptide no. 9 (human histone 2A) (human, also: biotin-labelled); test: ELISA, Ab 10 ug/well
T4 construct: also called peptide 9
T4 peptide: DNKKT[Cit]IIPRHL
Protocol: as §1

[5] = target: T5, peptide no. 7 (human histone 2A) (human, also: biotin-labelled); test: ELISA, Ab 10 ug/well
T5 construct: also called peptide 7
T5 peptide: GNYSE[Cit]VGAGAP
Protocol: as §1

[6] = target: T6, peptide no. 6 (human histone 2A) (human, also: biotin-labelled); test: ELISA, Ab 10 ug/well
T6 construct: also called peptide 6
T6 peptide: VHRLL[Cit]KGNYSE
Protocol: as §1

[7] = target: T7, peptide no. 10 (human histone 2A) (human, also: biotin-labelled); test: ELISA, Ab 10 ug/well
T7 construct: also called peptide 10
T7 peptide: TRIIP[Cit]HLQLAI
Protocol: as §1

CFC-1 [8] = target: T8, CFC-1; test: ELISA, Ab 10 ug/well
T8 construct: Positive control for anti-citrulline reactivity; also called cfc1 XG; Cfc1-peptide
Protocol: as §1

[9] = target: T9, peptide no. 12 (human histone 2A) (human, also: biotin-labelled); test: ELISA, Ab 10 ug/well
T9 construct: also called peptide 12
T9 peptide: NKLLG[Cit]VTIAQG
Protocol: as §1

[10] = target: T10, peptide no. 11 (human histone 2A) (human, also: biotin-labelled); test: ELISA, Ab 10 ug/well
T10 construct: also called peptide 11
T10 peptide: LQLAI[Cit]NDEELN
Protocol: as §1

[11] = target: T11, peptide no. 2 (human histone 2A) (human, also: biotin-labelled); test: ELISA, Ab 10 ug/well
T11 construct: also called peptide 2
T11 peptide: AKAKS[Cit]SSRAGL
Protocol: as §1

huFibα XH = target: T12, huFibα XH (human, X at position 15 = citrulline; biotin-labelled); test: ELISA, Ab 0.0032 ug/well
T12 peptide: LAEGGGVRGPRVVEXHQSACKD
Protocol: as §1, with “fibrinogen and vimentin” for “histone 2A”
(§2) Biotin-labeled and citrulline-containing fibrinogen and vimentin peptides (Table 5) were also tested for reactivity with the therapeutic antibodies. Peptides were coated on 96-well NEUTRAVIDIN®-ELISA plates.

msFibα XH = target: T13, msFibα XH (mouse, X at position 15 = citrulline; biotin-labelled); test: ELISA, Ab 0.0032 ug/well
T13 peptide: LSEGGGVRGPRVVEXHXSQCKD
Protocol: as §1, with “fibrinogen and vimentin” for “histone 2A”
as §2

msFibα XG = target: T14, msFibα XG (mouse, X at position 8 = citrulline; biotin-labelled); test: ELISA, Ab 0.0032 ug/well
T14 peptide: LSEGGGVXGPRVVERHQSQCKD
Protocol: as §1, with “fibrinogen and vimentin” for “histone 2A”
as §2

msFibβ XG = target: T15, msFibβ XG (mouse, also: biotin-labelled); test: ELISA, Ab 0.0032 ug/well
T15 construct: also called mouse fibrinogen β peptide
T15 peptide: EPTDSLDA[Cit]GHRPVDRR
Protocol: as §1, with “fibrinogen and vimentin” for “histone 2A”
as §2

CFC-1 [12] = target: T8, CFC-1; test: ELISA, Ab 0.0032 ug/well
Protocol: as §1, with “fibrinogen and vimentin” for “histone 2A”
as §2

msVim XS/XL = target: T16, msVim XS/XL (mouse, also: biotin-labelled); test: ELISA, Ab 0.0032 ug/well
T16 construct: also called mouse vimentin peptide
T16 peptide: YVT[Cit]SSAV[Cit]L[Cit]SSVP
Protocol: as §1, with “fibrinogen and vimentin” for “histone 2A”
as §2

huFibα XG = target: T17, huFibα XG (human, X at position 8 = citrulline; biotin-labelled); test: ELISA, Ab 0.0032 ug/well
T17 peptide: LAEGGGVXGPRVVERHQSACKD
Protocol: as §1, with “fibrinogen and vimentin” for “histone 2A”
as §2

B1: RhmAb2.102 (antibody, human IgG1, lambda)
heavy: not shown
light: QSVLTQPPSMSAAPGQKVTISCSGSSSNIGNNYVSWYQQVPGTAPKLLIYDDNKRPSGIPGRFSGSKSATSATLGITGLQAGDEADYYCGSWDDNLSVVLFGGGTKLTVLGQPKAAPSVTLFPPSSEELQANKATLVCLISDFYPGAVTVAWKADSSPVKAGVETTTPSKQSNNKYAASSYLSLTPEQWKSHRSYSCQVTHEGSTVEKTVAPTECS
notes: Human IgG1 lambda; also called Rhm2.102
Binder B1 has an OD [1] of 0.239 OD450, an OD [2] of 0.619 OD450 and an OD [3] of 2.06 OD450. For the same binder, the OD [4] was 0.09 OD450, the OD [5] was 0.08 OD450 and the OD [6] was 1.41 OD450. It also gave an OD [7] of 0.091 OD450, an OD (CFC-1 [8]) of 3.27 OD450 and an OD [9] of 0.083 OD450. The OD [10] was 0.088 OD450, the OD [11] was 0.552 OD450 and the OD (huFibα XH) was 0.123 OD450. It also gave an OD (msFibα XH) of 0.085 OD450, an OD (msFibα XG) of 0.125 OD450 and an OD (msFibβ XG) of 0.12 OD450. It also gave an OD (CFC-1 [12]) of 0.506 OD450, an OD (msVim XS/XL) of 0.142 OD450 and an OD (huFibα XG) of 0.125 OD450.

— patent US20150307603A1 (MODIQUEST B V, published 2015)
